Reference: article PMC2912450

Target: His-tagged FliK (Salmonella) (UniProt P26416)
Assay: SPR

| Substance | Kd |
| --- | --- |
| FlhBc(N269A) (domain or fragment) | 10.5 µM |
| FlhBc(P270A) (domain or fragment) | 1.6 µM |
